Experimental data reported in CN106914229A.

Assays:
[1] = target: Myc-GST融合蛋白(Myc标签与谷胱甘肽融合的蛋白); test: ELISA on coated Myc-GST (5 μg/mL), anti-His-HRP detection, heat tolerance test at 70℃
[2] = target: Myc-GST融合蛋白(Myc标签与谷胱甘肽融合的蛋白); test: ELISA on coated Myc-GST (5 μg/mL), anti-His-HRP detection, heat tolerance test at 80℃
[3] = target: Myc-GST融合蛋白(Myc标签与谷胱甘肽融合的蛋白); test: ELISA on coated Myc-GST (5 μg/mL), anti-His-HRP detection, heat tolerance test at 90℃

B1: 抗c-Myc标签单域重链抗体 (VHH)
VHH: QLQLVESGGGSVQPGGSLTLSCSASGFNISQYSVGWFREAPGEEREGISCLDIDGKITTFSDAIQGRFTIARDNAANMIYLHMDALNPLDTAVYRCVARWDCSRHDFITQKTATGIWGPGTQVTVSA
- OD450 [1]: 1.5 OD450
- OD450 [2]: 1.3 OD450
- OD450 [3]: 1.1 OD450
